# Reference: patent US20050054833A1 (published 2005)
# T1: human CD23 (human, UniProt P06734 1-321)
# T1 chain: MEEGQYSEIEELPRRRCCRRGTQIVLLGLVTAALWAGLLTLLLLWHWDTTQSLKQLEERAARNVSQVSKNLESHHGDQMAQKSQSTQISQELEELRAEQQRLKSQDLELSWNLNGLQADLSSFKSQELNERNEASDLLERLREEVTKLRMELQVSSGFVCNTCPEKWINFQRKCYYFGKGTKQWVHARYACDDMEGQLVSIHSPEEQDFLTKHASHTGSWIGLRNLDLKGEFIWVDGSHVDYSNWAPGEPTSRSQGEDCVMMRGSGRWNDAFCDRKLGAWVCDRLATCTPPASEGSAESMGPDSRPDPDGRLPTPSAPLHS
# Key:
# [1] = target: T1, human CD23; assay: apparent Kd
# [2] = target: T1, human CD23; assay: apparent Kd; replicate 2
# [3] = target: T1, human CD23; assay: apparent Kd; replicate 1
# [4] = target: T1, human CD23; assay: apparent Kd; replicate 3
# [5] = target: T1, human CD23; assay: apparent Kd; replicate 4
# [6] = target: p5E8G1; assay: apparent Kd
# [7] = target: p5E8G1N-; assay: apparent Kd
binder,measurement,setting,value
"PRIMATIZED antibody p5E8G4PN- (antibody, V domains shown) VH: EVQLVESGGGLAKPGGSLRLSCAASGFRFTFNNYYMDWVRQAPGQGLEWVSRISSSGDPTWYADSVKGRFTISRENAKNTLFLQMNSLRAEDTAVYYCASLTTGSDSWGQGVLVTVSS VL: DIQMTQSPSSLSASVGDRVTITCRASQDIRYYLNWYQQKPGKAPKLLIYVASSLQSGVPSRFSGSGSGTEFTLTVSSLQPEDFATYYCLQVYSTPRTFGQGTKVEIK",Kd,[1],0.3 nM
"primate anti-human CD23 monoclonal antibody 5E8 (antibody, V domains shown, N-linked oligosaccharide at the asparagine of the heavy chain variable region glycosylation site (Kabat 75)) VH: EVQLVESGGGLAKPGGSLRLSCAASGFRFTFNNYYMDWVRQAPGQGLEWVSRISSSGDPTWYADSVKGRFTISRENANNTLFLQMNSLRAEDTAVYYCASLTTGSDSWGQGVLVTVSS VL: DIQMTQSPSSLSASVGDRVTITCRASQDIRYYLNWYQQKPGKAPKLLIYVASSLQSGVPSRFSGSGSGTEFTLTVSSLQPEDFATYYCLQVYSTPRTFGQGTKVEIK",Kd,[2],1.5 nM
same,Kd,[3],0.5 nM
same,Kd,[4],1.8 nM
same,Kd,[5],4.4 nM
CD23 (receptor) MEEGQYSEIEELPRRRCCRRGTQIVLLGLVTAALWAGLLTLLLLWHWDTTQSLKQLEERAARNVSQVSKNLESHHGDQMAQKSQSTQISQELEELRAEQQRLKSQDLELSWNLNGLQADLSSFKSQELNERNEASDLLERLREEVTKLRMELQVSSGFVCNTCPEKWINFQRKCYYFGKGTKQWVHARYACDDMEGQLVSIHSPEEQDFLTKHASHTGSWIGLRNLDLKGEFIWVDGSHVDYSNWAPGEPTSRSQGEDCVMMRGSGRWNDAFCDRKLGAWVCDRLATCTPPASEGSAESMGPDSRPDPDGRLPTPSAPLHS,Kd,[6],0.7 nM
same,Kd,[7],0.7 nM
"PRIMATIZED antibody p5E8G4P (antibody, V domains shown, N-linked oligosaccharide at the asparagine of the heavy chain variable region glycosylation site (Kabat 75)) VH: EVQLVESGGGLAKPGGSLRLSCAASGFRFTFNNYYMDWVRQAPGQGLEWVSRISSSGDPTWYADSVKGRFTISRENANNTLFLQMNSLRAEDTAVYYCASLTTGSDSWGQGVLVTVSS VL: DIQMTQSPSSLSASVGDRVTITCRASQDIRYYLNWYQQKPGKAPKLLIYVASSLQSGVPSRFSGSGSGTEFTLTVSSLQPEDFATYYCLQVYSTPRTFGQGTKVEIK",Kd,[2],1 nM
same,Kd,[3],0.3 nM
